Square brackets hold non-standard residues; d marks the D form. Peptide text beside a SMILES is read from it. * marks the point of attachment. DOTA = O=C(O)CN1CCN(CC(=O)O)CCN(CC(=O)*)CCN(CC(=O)O)CC1; NMe1Nal = CN[C@@H](Cc1cccc2ccccc12)C(=O)O; NMeNle = CCCC[C@H](NC)C(=O)O; Sar = CNCC(=O)O

For one data set, the system named is A431 CCK2R cells. Further details: species or system BALB/c nu/nu mice. To be noted: mouse, in vivo, iv. On the procedure:
The diagnostic efficacy of Compounds [^68Ga]Ga-1-4 and [^68Ga]Ga-Cmp ex-2 was assessed using static small animal PET imaging and quantifying biodistribution studies. Female BALB/c nu/nu mice (age 8-10 weeks) were inoculated subcutaneously on the right flank with 3×10^6 A431 CCK2R cells in PBS:Matrigel (1:1). Mice were weighed and tumours measured twice weekly using electronic callipers with tumour volume (mm^3) calculated as length×width×height×π/6. Mice were assigned to imaging and/or biodistribution groups (tumour volumes: 50-500 mm^3). The respective Ga-68 labelled tracer (4-5 MBq, 100 μL, 13.7-14.2 pmoles) was mixed with vehicle solution (75 μL, DMSO:Tween 80:water, 2:2:6 v/v/v) and then administered to six mice intravenously via tail vein injection. Three mice were euthanised for biodistribution 1 h post injection and selected tissues were excised, weighed and counted using a Capintec (Captus 4000e) gamma counter. Three mice were anaesthetised using 1.5% isoflurane and imaged at 1 and 2 h with a G8 Small Animal PET/CT scanner (Perkin Elmer/Sofie Biosciences). A 10 min static PET scan was acquired, followed immediately by a CT scan. PET images were acquired using the G8 acquisition engine software and reconstructed using a 3D maximal likelihood and expectation maximization (ML-EM) algorithm. PET images were analysed using VivoQuant software, version 3.0 (inviCRO Imaging Services and Software) to quantify maximum standardised uptake value in regions of interest (SUVmax). After imaging the 2 h time point the mice were harvested for biodistribution analysis as above.
For blocking CCK2R binding a solution of N-[(3R)-2,3-Dihydro-1-[2-(2-methylphenyl)-2-oxoethyl]-2-oxo-5-phenyl-1H-1,4-benzodiazepin-3-yl]-N′-(3-methylphenyl)-urea (YM022; Sigma Aldrich) was used. […]

The nature of another data set: in vitro. It is filed as in vitro ADME, mouse. How it is done:
Drug detoxification, drug metabolism and metabolic stability are important determinants of the efficacy of theranostic candidates in clinical settings. To assess metabolic stability, radiolabelled Compounds [^68Ga]Ga-1-4 and comparative example-2 ([^68Ga]Ga-Cmp ex-2) were challenged by incubation in either human serum, mouse liver or kidney homogenates and HEPES buffer as a negative control. Duplicate samples (750-900 pmol/mL) were incubated at 37° C. with pooled human serum, 15% mouse kidney homogenate, 30% mouse liver homogenate or 20 mM HEPES, pH 7.3 (control). Human blood was collected and serum prepared using SSTII advance vacutainer tubes according to the manufacturer's instructions (Becton Dickinson, New Jersey, USA). Mouse kidney and liver homogenates were prepared by washing the tissues in ice-cold HEPES buffer, pH 7.3 and placing them in pre-chilled tubes containing HEPES buffer and 2.38 mm metal beads (Mo-Bio Laboratories, Hilden, Germany). Tissues were homogenised using the PowerLyzer24 homogeniser (Qiagen, Hilden, Germany) according to the manufacturer's instructions. Ga-68 radiolabelled peptides were incubated with the various lysates at 37° C. and samples were collected at 15, 30, 60 and 90 min. Reactions were terminated by addition of an equal volume of acetonitrile and centrifugation for 2 min at 15,000 rpm. Supernatants were diluted in water before being analysed by HPLC using a Kinetex C18 XB column (5 μm 4.6×150 mm), eluted at 1.5 mL/min of gradient 20-60% MeCN in water containing 0.1% formic acid over 7 min.

Data set [1] in a line: LogD7.4 determination (PBS pH 7.4 / n-octanol). It is filed as physicochemical. The conditions noted are these: PBS/Octanol mix, n = 5. How it is done: The distribution coefficients (LogD7.4) of radiolabelled compounds [^68Ga]Ga-1-4, and [^68Ga]Ga-Cmp ex-2 were assayed by measuring radioactivity distribution in the aqueous phase (phosphate buffer pH7.4) and the organic phase (n-octanol). To determine the distribution coefficient (LogD), Ga-68 radiolabelled compounds were diluted to 20 pmol/mL in PBS (pH 7.4) and an equal volume of n-octanol was added. The mixture was vortexed vigorously for 10 cycles of 1 min at room temperature before being centrifuged for 6 min to separate the two phases. Equal volumes from each phase were aliquoted into individual counting tubes and analysed for 1 min using the Perkin Elmer 2480 Wizard2™ gamma counter (PerkinElmer, Massachusetts, USA). The distribution coefficient was calculated using the following equation [formula]

Turning to `CCCC[C@@H](C(=O)N[C@@H](CC(=O)O)C(=O)N(C)[C@@H](Cc1cccc2ccccc12)C(N)=O)N(C)C(=O)[C@H](Cc1c[nH]c2ccccc12)NC(=O)CN(C)C(=O)[C@H](Cc1ccc(O)cc1)NC(=O)[C@H](C)NC(=O)[C@@H](CCC(=O)O)NC(=O)[C@@H](CCC(=O)O)NC(=O)[C@@H](CCC(=O)O)NC(=O)[C@@H](C)NC(=O)[C@@H](CCC(=O)O)NC(=O)[C@@H](CCC(=O)O)NC(=O)CN1CCN(CC(=O)O)CCN(CC(=O)O)CCN(CC(=O)O)CC1` [[^68Ga]Ga-4, metal not drawn] ({DOTA}-[dE][dE][dA][dE][dE][dE]AY[Sar]W[NMeNle]D[NMe1Nal]-NH2), the “tumour to kidney ratio” value with A431 CCK2R cells was “best tumour to kidney ratio”. Also, in “in vitro”, the “metabolism in kidney homogenates” value is listed as “no observable metabolites detected” and the “metabolism in liver homogenates” value was “no observable metabolites detected”. In data set [1], the LogD7.4 is recorded as −2.59 ± 0.02.

On to `CCCC[C@@H](C(=O)N[C@@H](CC(=O)O)C(=O)N(C)[C@@H](Cc1cccc2ccccc12)C(N)=O)N(C)C(=O)[C@H](Cc1c[nH]c2ccccc12)NC(=O)CN(C)C(=O)[C@H](Cc1ccc(O)cc1)NC(=O)[C@H](C)NC(=O)[C@@H](CCC(=O)O)NC(=O)[C@@H](CCC(=O)O)NC(=O)[C@@H](CCC(=O)O)NC(=O)[C@@H](CCC(=O)O)NC(=O)[C@@H](CCC(=O)O)NC(=O)[C@@H](CCC(=O)O)NC(=O)CN1CCN(CC(=O)O)CCN(CC(=O)O)CCN(CC(=O)O)CC1` [[^68Ga]Ga-Cmp ex-2, metal not drawn, reference compound] ({DOTA}-[dE][dE][dE][dE][dE][dE]AY[Sar]W[NMeNle]D[NMe1Nal]-NH2), for which, in the data set with A431 CCK2R cells, the “renal / kidney uptake” value is reported as “highest renal uptake” and the tumour uptake entry is listed as “best tumour uptake”. Besides, in the data set “in vitro”, the “metabolism in kidney homogenates” value was “no observable metabolites detected” and the “metabolism in liver homogenates” value is given as “no observable metabolites detected”. The compound further had a LogD7.4 in data set [1] of −2.97 ± 0.13.

For the origin of these results see US20260077071A1, “Targeted Delivery of Theranostic Agents” (Peter MacCallum Cancer Institute, priority 2022, published 2026).
